Laboratory results as given in paper PMC9147068, “The Response Regulator RegA Is a Copper Binding Protein That Covalently Dimerizes When Exposed to Oxygen” (Microorganisms, 2022).

How the values were obtained:
[1] = test system: RegA, Cu2+-stimulated disulfide-linked dimer (unphosphorylated) (Rhodobacter capsulatus); assay: DNase I footprinting; conditions: 20 mM Tris-HCl pH 8.0, 2 mM MgCl2, 0.5 mM CaCl2, 0.1 mg/mL BSA, 50 nM DNA probe, 20 uL, 15 min at room temperature
[2] = biological target: the molecule itself; assay: non-reducing SDS-PAGE; monomeric RegA loaded with Cu2+ by buffer exchange aerobically (20 mM Tris-HCl pH 8.0, 250 mM NaCl), run at once on a non-reducing gel without DTT; time course in air from one minute

Molecule | Kd [1] [nM] | stoichiometry N [2]
ccoN promoter fragment (299 bp) | 1000 | –
RegA (response regulator RegA of Rhodobacter capsulatus), wild type, tagless (natural protein, UniProt P42508 1-184, looked up, RegA, response regulator of the RegB/RegA two-component system, Rhodobacter capsulatus; wild-type codon at residue 95 (made from the RegA* overexpression vector of Du et al. 1998); a single cysteine, Cys156, in the tryptic peptide VYELCDR; The dimer formed with Cu2+ and O2 is joined by an intermolecular disulfide bond between Cys156 of two chains; also called apo-RegA; RegA monomer) MAEEEFAELGSDRSLLLVDDDNAFLTRLARAMEKRGFQTEIAETVSAGKAIVQNRAPAYAVIDLRLEDGNGLEVVEALRERRPEARIVVLTGYGAIATAVAAVKMGATDYLSKPADANDITNALLAKGEALPPPPENPMSADRVRWEHIQRVYELCDRNVSETARRLNMHRRTLQRILAKRSPR | – | 2
